According to article PMC11626796, “Versican binds collagen via its G3 domain and regulates the organization and mechanics of collagenous matrices” (The Journal of Biological Chemistry, 2024):
Each block holds one binder with its values, some of them ahead of it.

Target: T1, Rat tail type I telo-collagen (rat, UniProt P02454 152-1207; P02466 86-1125)
T1 construct: Type I collagen alpha-1 chain, rat tail telo-collagen; Type I collagen alpha-2 chain, rat tail telo-collagen; Extracted from tissue; Telopeptides are kept (telo-collagen); also called type I collagen; full-length collagen; source: bought: Corning (rat tail)
T1 sequence (P02454 152-1207, chain 1 of 2): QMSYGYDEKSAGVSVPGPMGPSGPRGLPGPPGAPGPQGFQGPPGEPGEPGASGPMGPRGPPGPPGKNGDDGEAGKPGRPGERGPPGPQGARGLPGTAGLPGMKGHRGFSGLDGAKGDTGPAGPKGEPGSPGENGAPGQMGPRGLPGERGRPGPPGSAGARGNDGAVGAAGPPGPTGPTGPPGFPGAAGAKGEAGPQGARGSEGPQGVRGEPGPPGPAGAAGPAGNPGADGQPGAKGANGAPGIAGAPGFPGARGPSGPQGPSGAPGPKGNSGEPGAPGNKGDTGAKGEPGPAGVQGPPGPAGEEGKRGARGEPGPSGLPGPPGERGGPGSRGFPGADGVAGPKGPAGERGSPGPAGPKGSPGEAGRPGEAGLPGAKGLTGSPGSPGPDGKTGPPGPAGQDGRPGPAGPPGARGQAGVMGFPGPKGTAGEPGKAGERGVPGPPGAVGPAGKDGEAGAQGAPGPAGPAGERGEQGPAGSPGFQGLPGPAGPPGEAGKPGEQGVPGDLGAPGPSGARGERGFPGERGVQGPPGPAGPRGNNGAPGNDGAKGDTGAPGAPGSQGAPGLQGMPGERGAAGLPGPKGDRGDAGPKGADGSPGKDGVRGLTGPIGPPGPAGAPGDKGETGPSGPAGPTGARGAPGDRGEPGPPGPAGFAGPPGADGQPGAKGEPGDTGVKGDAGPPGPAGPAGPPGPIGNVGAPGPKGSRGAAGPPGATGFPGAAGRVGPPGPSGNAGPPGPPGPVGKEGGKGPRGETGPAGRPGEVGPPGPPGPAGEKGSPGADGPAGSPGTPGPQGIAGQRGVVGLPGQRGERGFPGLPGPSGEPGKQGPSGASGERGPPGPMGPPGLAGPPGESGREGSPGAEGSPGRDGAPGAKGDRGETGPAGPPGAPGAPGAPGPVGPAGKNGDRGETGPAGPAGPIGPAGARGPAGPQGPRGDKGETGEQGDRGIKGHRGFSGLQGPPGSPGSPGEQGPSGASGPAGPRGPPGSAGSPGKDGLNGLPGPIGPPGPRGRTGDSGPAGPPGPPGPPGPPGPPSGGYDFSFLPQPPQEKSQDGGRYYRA
T1 sequence (P02466 86-1125, chain 2 of 2): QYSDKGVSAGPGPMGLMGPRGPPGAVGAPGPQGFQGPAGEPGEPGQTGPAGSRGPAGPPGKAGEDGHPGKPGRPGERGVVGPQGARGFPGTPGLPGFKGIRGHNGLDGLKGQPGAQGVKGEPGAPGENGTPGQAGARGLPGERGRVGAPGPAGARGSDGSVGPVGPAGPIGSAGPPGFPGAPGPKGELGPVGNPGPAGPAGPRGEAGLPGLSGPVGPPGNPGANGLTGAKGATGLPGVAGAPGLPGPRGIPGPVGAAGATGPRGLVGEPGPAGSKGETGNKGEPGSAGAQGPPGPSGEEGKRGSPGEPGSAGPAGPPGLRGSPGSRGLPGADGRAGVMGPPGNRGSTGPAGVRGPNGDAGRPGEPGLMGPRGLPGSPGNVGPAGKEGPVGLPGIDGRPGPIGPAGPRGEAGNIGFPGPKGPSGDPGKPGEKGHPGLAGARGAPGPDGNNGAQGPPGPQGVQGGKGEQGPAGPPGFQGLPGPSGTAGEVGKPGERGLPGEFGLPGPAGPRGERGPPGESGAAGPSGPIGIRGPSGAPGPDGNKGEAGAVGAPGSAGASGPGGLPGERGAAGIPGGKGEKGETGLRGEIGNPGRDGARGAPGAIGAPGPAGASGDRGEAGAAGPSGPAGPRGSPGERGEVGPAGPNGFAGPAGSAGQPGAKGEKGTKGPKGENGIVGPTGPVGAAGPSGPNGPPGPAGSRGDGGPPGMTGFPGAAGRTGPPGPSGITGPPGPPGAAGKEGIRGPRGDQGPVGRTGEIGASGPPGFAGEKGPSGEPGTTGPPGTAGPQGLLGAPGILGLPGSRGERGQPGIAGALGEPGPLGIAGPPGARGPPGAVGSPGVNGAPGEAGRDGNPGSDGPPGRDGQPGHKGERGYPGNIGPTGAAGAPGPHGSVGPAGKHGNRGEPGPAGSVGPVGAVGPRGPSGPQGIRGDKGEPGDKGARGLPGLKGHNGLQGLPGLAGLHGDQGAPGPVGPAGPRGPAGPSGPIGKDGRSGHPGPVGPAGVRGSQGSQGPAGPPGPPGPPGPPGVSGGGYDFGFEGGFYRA
Assay: ELISA; solid-phase binding assay: proteoglycan or versican domain coated on a 96-well plate (0.25 ug/ml; 0.05-1 ug/ml in Fig. 2A) at 4 C overnight, blocked with 3% BSA in TTBS or casein; rat tail type I collagen 0.1-5 ug/ml in 1% BSA/PBS overnight at RT; detected with biotin-conjugated anti-collagen I antibody, streptavidin-HRP and TMB; Kd from Scatchard plot
Conditions: both partners purified

- Kd: 0.9 nM
B1: Recombinant human versican G1 domain (domain or fragment)
chain: not shown
modifications: Limits taken by convention: mature N-terminus through Ig-like V, Link 1 and Link 2 (Abcam ab152303 limits not given); tag omitted

- Kd: 3.2 nM
B2: Recombinant human versican G3 domain (domain or fragment)
chain: not shown

- Kd: 0.7 nM
B3: Recombinant human versican isoform V3 (natural protein)
chain: not shown
notes: Versican isoform V3, human; contains only the N-terminal G1 and C-terminal G3 domains and lacks the GAG domains; also called V3 isoform; source: bought: R&D Systems
